The source of these data is article PMC3689302.

In the series the target is Bh-RNase HC (RNase HI catalytic domain, D132N) (Bacillus halodurans (genomic DNA from …, UniProt Q9KEI9 58-196, D132N)). Put plainly: X-ray crystallography.

B1: Dickerson-Drew dodecamer (DDD) (dsDNA)
DNA 1: CGCGAATTCGCG
DNA 2: CGCGAATTCGCG
As for B1, the binding result is “binds”.
